Consider one molecule from US20190194350A1.

Assay [1] deals with His-tagged extracellular domain of EGFR (aa 20-643) (UniProt P00533). Briefly: ELISA, coated EGFR-His. In general terms: ELISA stands for enzyme-linked immunosorbent assay.
The target is the same in assay [2]. Kind of assay: ELISA, coated EGFR-His, detection with HRP anti-human Fc antibody; the legend paragraph 41 and paragraph 295 name Cetuximab as this control, the sheet prints hu225-IgG [panel EGFR-His].

B1: hu225-IgG (antibody, V domains shown)
VH: EVQLVESGGGLVQPGGSLRLSCAASGFSLTNYGVHWVRQAPGKGLEWLGVIWSGGNTDYNTPFTSRFTISRDNSKNTLYLQMNSLRAEDTAVYYCARALTYYDYEFAYWGQGTTVTVSS
VL: DIQLTQSPSFLSASVGDRVTITCRASQSIGTNIHWYQQKPGKAPKLLIKYASESISGVPSRFSGSGSGTEFTLTISSLQPEDFATYYCQQNNNWPTTFGAGTKLEIK
As usually defined, the EC50 is the concentration giving half of the maximal effect. A higher EC50 goes with a less potent agent. One may read the EC50 (read off the curve) as the concentration needed to bring the measured effect to its halfway point. As to B1, the EC50 in assay [1] is 200 pM. Further, the concentration for a half-maximal effect (EC50 (read off the curve)) in assay [2] turned out to be 200 pM.
